US20260201030A1, “ANTIBODY, ANTIBODY-DRUG CONJUGATE THEREOF AND USE THEREOF” (EVOPOINT BIOSCIENCES CO., LTD., priority 2021, published 2026)
Changes are numbered by the printed parent chain. Blank lines part the entries; values can stand above or below the molecule they belong to.

Columns and labels:
[1] = test system: HEK293T-Claudin18.2 (human) cells; assay: ADCC activity, fluorescein reporter system (Jurkat-NFAT-CD16a); format: cell-based; settings: HEK293T-Claudin18.2 (human) target cells, 5 h
Experimental: ADCC activity of the anti-human Claudin18.2 humanized monoclonal antibodies was detected by a fluorescein reporter system. The experiment was carried out using a Rhinogen® Bio-Glory One-Step Firefly Luciferase Assay kit (Suzhou Rhino Bio, RA-GL04), following the manufacturer's instructions. The experimental procedures were as follows: HEK293T-Claudin18.2 (human) cells were digested, collected by centrifugation, resuspended in DMEM+1% FBS, and then plated at 50000 cells/well. Jurkat-NFAT-CD16a cells were collected by centrifugation and resuspended in 1640+1% FBS, and then plated at 100000 cells/well. Each test antibody subjected to gradient dilution was added, and the mixture was incubated at 37° C. for 5 h. 50 μL of a Bio-Glory One-Step luciferase substrate was added to each well, and readings were taken on a microplate reader (MD, SpectraMax i3x).

[2] = test system: cynomolgus monkey Claudin18.2; assay: FACS species affinity on HEK293T-Claudin18.2 (cynomolgus monkey) cells; format: binding; settings: cell-based FACS
Experimental: The affinity of the anti-human Claudin18.2 humanized monoclonal antibodies for Claudin18.2 of different species was determined by flow cytometry (FACS). The experimental procedures were as follows: HEK293T-Claudin18.2 (cynomolgus monkey) cells, HEK293T-Claudin18.2 (mouse) cells and HEK293T-Claudin18.2 (rat) cells were digested, collected by centrifugation, washed three times with pre-cooled PBS, resuspended in 1% BSA (in PBS), and added to a 96-well pointed bottom plate at 3×10^5 cells/well. Each antibody subjected to gradient dilution was added, and the mixture was incubated at 4° C. for 1 h. The cells were washed three times with pre-cooled PBS, and then 1 μL of a fluorescent secondary antibody (APC: Biolegend-410712) was added to each well. The mixture was incubated at 4° C. for 0.5 h, and the cells were washed three times with pre-cooled PBS, then resuspended, and assayed on a flow cytometer.

human Claudin18.2 [3] = target: T1, human Claudin18.2 (Homo sapiens, UniProt P56856); assay: Cell-based ELISA affinity on NUGC4 cells endogenously expressing human Claudin18.2; format: binding; settings: for NUCG4 Maximum signal value: OD450
T1 construct: expressed in transfected cells

human Claudin18.2 [4] = target: T1, human Claudin18.2; assay: Cell-based ELISA affinity of humanized antibodies on HEK293T-Claudin18.2 (human) cells; format: binding; settings: HEK293T-Claudin18.2 cells
Experimental: The affinity of the anti-human Claudin18.2 murine monoclonal antibodies was evaluated by cell-based ELISA. The experimental procedures were as follows: The day before the experiment, HEK293T-Claudin18.2 (human) cells were plated in a 96-well plate at 5×10^4 cells/well. On the day of the experiment, the supernatant was removed, the cells in each well were washed once with 300 μL of PBS, and 100 μL of 4% paraformaldehyde was added to each well for fixation at room temperature for 20 min. Paraformaldehyde was then removed, and the cells in each well were washed twice with 300 μL of PBS. 100 μL of 2% BSA (in PBS) was added to each well, and the mixture was blocked at 37° C. for 2 h. After removing the blocking solution, each antibody subjected to gradient dilution (diluted with 2% BSA (in PBS), starting at […], in a 3-fold gradient, for a total of 11 concentration points) was added to the plate at 100 μL/well, and the mixture was incubated at 37° C. for 2 h. The supernatant was removed, and the cells in each well were washed three times with 300 μL of PBST. 100 μL of an anti-mouse IgG HRP secondary antibody (Jackson, cat #115-035-003) in 2% BSA was added to each well, and the mixture was incubated at 37° C. for 1 h. The secondary antibody was then removed, and the cells in each well were washed five times with 300 μL of PBST, followed by the addition of 100 μL of a TMB substrate (Huzhou InnoReagents Co., Ltd.) per well for color development for 5-20 min. The reaction was stopped by adding 50 μL of 2 N HCl to each well, and OD450 nm values were read on a microplate reader (manufacturer: MD, model: SpectraMax). The values obtained were plotted by GraphPad Prism to calculate the EC50 value.
The affinity of the anti-human Claudin18.2 humanized monoclonal antibodies was determined by cell-based ELISA. The cell-based ELISA was conducted as described in Example I-3.

human Claudin18.2 [5] = target: T1, human Claudin18.2; assay: Cell ELISA affinity before and after conjugation, L929-claudin 18.2 (human) cells; format: binding; settings: FIG. 8A
Experimental: The cell binding affinity of the antibody before and after conjugation to the toxin was detected according to a method similar to that described in Example 2.2. L929-claudin 18.2 (human) or NUGC4 cells were digested with trypsin, collected by centrifugation, washed three times with pre-cooled PBS, resuspended, added to a 96-well plate at 5×10^4 cells/well, and incubated overnight. The cells were fixed with 4% paraformaldehyde and blocked with 2% BSA (in PBS) at 37° C. for 2 h. Each ADC drug or antibody subjected to gradient dilution was added, and the mixture was incubated at 37° C. for 2 h. […] A TMB substrate was added for color development, and after the reaction was stopped by 2 M HCl, OD450 nm values were read on a microplate reader.

[6] = test system: HEK293T-Claudin18.2 (human) cells; assay: CDC activity, guinea pig serum killing experiment; format: cell-based; settings: 20% guinea pig serum, 5 h
Experimental: CDC activity of the anti-human Claudin18.2 humanized monoclonal antibodies was detected by a guinea pig serum killing experiment. The experimental procedures were as follows: HEK293T-Claudin18.2 (human) cells were digested, collected by centrifugation, plated at 50000 cells/well, and incubated overnight. The supernatant was discarded, and 100 μL of each test antibody subjected to gradient dilution with DMEM+20% guinea pig serum (Beijing Bersee, BM361Y) was added to each well. The mixture was incubated at 37° C. for 5 h, and 20 μL of a CCK8 reagent (Suzhou Rhino Bio, QDY-003-D) was added to each well. The mixture was allowed to react for 1-4 h, and readings were taken at 450 nm on a microplate reader.

HEK293T-Claudin18.2 (cynomolgus monkey) EC50 [2]: 0.2398 µg/mL | NUCG4 EC50 (human Claudin18.2 [3]): 0.1012 µg/mL | NUCG4 Maximum signal value (human Claudin18.2 [3]): 0.304 | Affinity detected by cell-based ELISA (EC50, ng/mL) HEK293T-Claudin18.2 (human Claudin18.2 [4]): 11.15 ng/mL | change in affinity for the cells before and after conjugation (human Claudin18.2 [5]): no significant changes in the affinity
B1: 25C7A5-HZ1: humanized anti-Claudin18.2 antibody, VH SEQ ID NO: 1, VL SEQ ID NO: 2, human IgG1/Kappa constant regions (antibody, V domains shown)
VH: QVQLVQSGAEVKKPGSSVKVSCKASGYTFTNYWLHWVRQAPGQGLEWMGMMHPISGSSNYAQKFQGRATLTVDKSTSTAYMELSSLRSEDTAVYYCARGLLSAMDYWGQGTLVTVSS
VL: EIVLTQSPATLSLSPGERATLSCKASENVKTYVSWYQQKPGQSPRLLIYEASNRYTGVPARFSGSGSATDFTLTISSLEPEDFAVYFCGQTYSFPPTFGQGTKVEIK
modifications: human IgG1/kappa constant regions
ADCC activity EC50 [1]: 0.04649 µg/mL | CDC activity EC50 [6]: 3.137 µg/mL

HEK293T-Claudin18.2 (cynomolgus monkey) EC50 [2]: 0.2133 µg/mL | NUCG4 EC50 (human Claudin18.2 [3]): 0.1225 µg/mL | NUCG4 Maximum signal value (human Claudin18.2 [3]): 0.313 | Affinity detected by cell-based ELISA (EC50, ng/mL) HEK293T-Claudin18.2 (human Claudin18.2 [4]): 11.17 ± 2.19(N = 2) ng/mL | change in affinity for the cells before and after conjugation (human Claudin18.2 [5]): no significant changes in the affinity
B2: 25C7A5-HZ2: humanized anti-Claudin18.2 antibody, VH SEQ ID NO: 3, VL SEQ ID NO: 2, human IgG1/Kappa constant regions (antibody, V domains shown)
VH: B1 VH with Q6E
VL: B1 VL
modifications: human IgG1/kappa constant regions
ADCC activity EC50 [1]: 0.04875 µg/mL | CDC activity EC50 [6]: 3.283 µg/mL
